From article PMC10786891, “Massively parallel profiling of RNA-targeting CRISPR-Cas13d”

T1: EsCas13d, nuclease-dead (Eubacterium siraeum, UniProt B0MS50, R295A;H300A;R849A;H854A)
T1 sequence: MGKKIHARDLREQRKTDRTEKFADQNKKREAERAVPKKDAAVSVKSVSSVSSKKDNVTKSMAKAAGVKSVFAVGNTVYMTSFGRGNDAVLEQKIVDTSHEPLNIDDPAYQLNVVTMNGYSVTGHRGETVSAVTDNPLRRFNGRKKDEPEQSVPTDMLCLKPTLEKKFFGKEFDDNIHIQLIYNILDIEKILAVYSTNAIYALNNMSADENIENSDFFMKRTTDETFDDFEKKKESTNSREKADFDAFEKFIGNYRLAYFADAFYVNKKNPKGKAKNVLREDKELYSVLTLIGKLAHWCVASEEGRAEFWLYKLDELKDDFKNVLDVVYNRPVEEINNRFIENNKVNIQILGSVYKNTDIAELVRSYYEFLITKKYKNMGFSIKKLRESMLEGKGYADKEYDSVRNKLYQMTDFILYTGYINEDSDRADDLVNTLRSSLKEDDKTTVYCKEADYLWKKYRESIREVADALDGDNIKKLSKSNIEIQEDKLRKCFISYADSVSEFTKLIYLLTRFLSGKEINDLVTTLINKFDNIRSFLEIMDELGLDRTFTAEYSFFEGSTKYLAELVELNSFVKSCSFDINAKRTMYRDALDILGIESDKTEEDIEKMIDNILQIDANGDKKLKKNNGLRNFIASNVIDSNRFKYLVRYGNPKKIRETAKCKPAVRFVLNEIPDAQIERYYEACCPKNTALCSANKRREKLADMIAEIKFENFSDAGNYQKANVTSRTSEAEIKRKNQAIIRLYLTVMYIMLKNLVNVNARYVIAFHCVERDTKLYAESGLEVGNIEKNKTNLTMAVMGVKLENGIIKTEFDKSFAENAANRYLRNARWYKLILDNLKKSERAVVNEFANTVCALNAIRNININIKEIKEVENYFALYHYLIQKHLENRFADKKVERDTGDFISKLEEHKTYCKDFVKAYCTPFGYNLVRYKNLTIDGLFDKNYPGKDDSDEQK


biological target: T1, EsCas13d, nuclease-dead; experiment: crRNA (strand 1, pre-loaded); Mg2+; 40 mM Tris-HCl pH 7.5, 150 mM NaCl, 6 mM MgCl2, 1 mM DTT, 0.1% Tween-20, 0.2 mg/ml BSA; 25 C; 10 min per concentration, then washed; settings: tags: His6-TwinStrep-SUMO cleaved; N-terminal SNAP kept (SNAP-Surface 488); label: 3' end held by stalled T7 RNA polymerase

Binder | Kd [nM]
target 1 insU 3' of 18,insG 3' of 11 (mixed) RNA 1: CACCCGUGCAAAAAUGCAGGGGUCUAAAACUGAGCGGAUAACCUCUCUAUGG RNA 2: GGGAAUGGAUCCACAUCUACGAAUUCGUACCAUAUGAGAGGUGUAUCCGCUCACCGAGAUCGGAAGAGCACACGU | 78 ± 21
target 3 G3C,G4C (mixed) RNA 1: CACCCGUGCAAAAUUGCAGGGGUCUAAAACGACCUGAAUAUUUCAGAUCAAA RNA 2: GGGAAUGGAUCCACAUCUACGAAUUCGUUUUUGAUCUGAAAUAUUCACCUCUGCAGAUCGGAAGAGCACACGU | 36.1 ± 5.75
target 3 G3U,U21A (mixed) RNA 1: CACCCGUGCAAAAUUGCAGGGGUCUAAAACGACCUGAAUAUUUCAGAUCAAA RNA 2: GGGAAUGGAUCCACAUCUACGAAUUCGUUUAUGAUCUGAAAUAUUCAGUUCUGCAGAUCGGAAGAGCACACGU | 87.5 ± 15.5
target 3 G4U,U22C (mixed) RNA 1: CACCCGUGCAAAAUUGCAGGGGUCUAAAACGACCUGAAUAUUUCAGAUCAAA RNA 2: GGGAAUGGAUCCACAUCUACGAAUUCGUUCUUGAUCUGAAAUAUUCAUGUCUGCAGAUCGGAAGAGCACACGU | 4.65 ± 0.85
target 3 U2C,C6U (mixed) RNA 1: CACCCGUGCAAAAUUGCAGGGGUCUAAAACGACCUGAAUAUUUCAGAUCAAA RNA 2: GGGAAUGGAUCCACAUCUACGAAUUCGUUUUUGAUCUGAAAUAUUUAGGCCUGCAGAUCGGAAGAGCACACGU | 52.5 ± 7
target 3 insC 3' of 12,insU 3' of 4 (mixed) RNA 1: CACCCGUGCAAAAUUGCAGGGGUCUAAAACGACCUGAAUAUUUCAGAUCAAA RNA 2: GGGAAUGGAUCCACAUCUACGAAUUCGUUUUUGAUCUGAACAUAUUCAGUGUCUGCAGAUCGGAAGAGCACACGU | ~64.5
target 3 U2G,U8A (mixed) RNA 1: CACCCGUGCAAAAUUGCAGGGGUCUAAAACGACCUGAAUAUUUCAGAUCAAA RNA 2: GGGAAUGGAUCCACAUCUACGAAUUCGUUUUUGAUCUGAAAUAAUCAGGGCUGCAGAUCGGAAGAGCACACGU | 21.6 ± 3.55
target 3 insC 3' of 3,insU 3' of 1 (mixed) RNA 1: CACCCGUGCAAAAUUGCAGGGGUCUAAAACGACCUGAAUAUUUCAGAUCAAA RNA 2: GGGAAUGGAUCCACAUCUACGAAUUCGUUUUUGAUCUGAAAUAUUCAGGCUCUUGCAGAUCGGAAGAGCACACGU | 46 ± 6
target 3 A12G,U21A (mixed) RNA 1: CACCCGUGCAAAAUUGCAGGGGUCUAAAACGACCUGAAUAUUUCAGAUCAAA RNA 2: GGGAAUGGAUCCACAUCUACGAAUUCGUUUAUGAUCUGAGAUAUUCAGGUCUGCAGAUCGGAAGAGCACACGU | 97.5 ± 47
target 3 insA 3' of 7,insU 3' of 4 (mixed) RNA 1: CACCCGUGCAAAAUUGCAGGGGUCUAAAACGACCUGAAUAUUUCAGAUCAAA RNA 2: GGGAAUGGAUCCACAUCUACGAAUUCGUUUUUGAUCUGAAAUAUUACAGUGUCUGCAGAUCGGAAGAGCACACGU | 12.7 ± 1.2
target 3 insA 3' of 15,insA 3' of 2 (mixed) RNA 1: CACCCGUGCAAAAUUGCAGGGGUCUAAAACGACCUGAAUAUUUCAGAUCAAA RNA 2: GGGAAUGGAUCCACAUCUACGAAUUCGUUUUUGAUCUAGAAAUAUUCAGGUACUGCAGAUCGGAAGAGCACACGU | ~64
target 1 insG 3' of 3 (mixed) RNA 1: CACCCGUGCAAAAAUGCAGGGGUCUAAAACUGAGCGGAUAACCUCUCUAUGG RNA 2: GGGAAUGGAUCCACAUCUACGAAUUCGUACCAUAGAGAGGUUAUCCGCUGCACCGAGAUCGGAAGAGCACACGU | 7.3 ± 0.6
target 3 insU 3' of 16 (mixed) RNA 1: CACCCGUGCAAAAUUGCAGGGGUCUAAAACGACCUGAAUAUUUCAGAUCAAA RNA 2: GGGAAUGGAUCCACAUCUACGAAUUCGUUUUUGAUCUUGAAAUAUUCAGGUCUGCAGAUCGGAAGAGCACACGU | 64 ± 8.5
target 3 insA 3' of 6,insA 3' of 1 (mixed) RNA 1: CACCCGUGCAAAAUUGCAGGGGUCUAAAACGACCUGAAUAUUUCAGAUCAAA RNA 2: GGGAAUGGAUCCACAUCUACGAAUUCGUUUUUGAUCUGAAAUAUUCAAGGUCAUGCAGAUCGGAAGAGCACACGU | 53 ± 18
target 3 insA 3' of 6,insG 3' of 1 (mixed) RNA 1: CACCCGUGCAAAAUUGCAGGGGUCUAAAACGACCUGAAUAUUUCAGAUCAAA RNA 2: GGGAAUGGAUCCACAUCUACGAAUUCGUUUUUGAUCUGAAAUAUUCAAGGUCGUGCAGAUCGGAAGAGCACACGU | 32 ± 11
target 3 insC 3' of 3 (mixed) RNA 1: CACCCGUGCAAAAUUGCAGGGGUCUAAAACGACCUGAAUAUUUCAGAUCAAA RNA 2: GGGAAUGGAUCCACAUCUACGAAUUCGUUUUUGAUCUGAAAUAUUCAGGCUCUGCAGAUCGGAAGAGCACACGU | 19.4 ± 2.05
target 3 insA 3' of 22,insU 3' of 22 (mixed) RNA 1: CACCCGUGCAAAAUUGCAGGGGUCUAAAACGACCUGAAUAUUUCAGAUCAAA RNA 2: GGGAAUGGAUCCACAUCUACGAAUUCGUUUAUUUGAUCUGAAAUAUUCAGGUCUGCAGAUCGGAAGAGCACACGU | 14.6 ± 1.45
target 3 insC 3' of 3,insA 3' of 1 (mixed) RNA 1: CACCCGUGCAAAAUUGCAGGGGUCUAAAACGACCUGAAUAUUUCAGAUCAAA RNA 2: GGGAAUGGAUCCACAUCUACGAAUUCGUUUUUGAUCUGAAAUAUUCAGGCUCAUGCAGAUCGGAAGAGCACACGU | 83 ± 17
target 3 insA 3' of 8,insU 3' of 5 (mixed) RNA 1: CACCCGUGCAAAAUUGCAGGGGUCUAAAACGACCUGAAUAUUUCAGAUCAAA RNA 2: GGGAAUGGAUCCACAUCUACGAAUUCGUUUUUGAUCUGAAAUAUAUCAUGGUCUGCAGAUCGGAAGAGCACACGU | 33.9 ± 3.75
target 3 insA 3' of 21,insC 3' of 21 (mixed) RNA 1: CACCCGUGCAAAAUUGCAGGGGUCUAAAACGACCUGAAUAUUUCAGAUCAAA RNA 2: GGGAAUGGAUCCACAUCUACGAAUUCGUUUUACUGAUCUGAAAUAUUCAGGUCUGCAGAUCGGAAGAGCACACGU | 47 ± 11.5
target 3 C6G,U22C (mixed) RNA 1: CACCCGUGCAAAAUUGCAGGGGUCUAAAACGACCUGAAUAUUUCAGAUCAAA RNA 2: GGGAAUGGAUCCACAUCUACGAAUUCGUUCUUGAUCUGAAAUAUUGAGGUCUGCAGAUCGGAAGAGCACACGU | 36.5 ± 6
target 3 insG 3' of 5,insC 3' of 4 (mixed) RNA 1: CACCCGUGCAAAAUUGCAGGGGUCUAAAACGACCUGAAUAUUUCAGAUCAAA RNA 2: GGGAAUGGAUCCACAUCUACGAAUUCGUUUUUGAUCUGAAAUAUUCAGGCGUCUGCAGAUCGGAAGAGCACACGU | 7.65 ± 1.2
target 1 G5C,C22U (mixed) RNA 1: CACCCGUGCAAAAAUGCAGGGGUCUAAAACUGAGCGGAUAACCUCUCUAUGG RNA 2: GGGAAUGGAUCCACAUCUACGAAUUCGUAUCAUAGAGAGGUUAUCCCCUCACCGAGAUCGGAAGAGCACACGU | 22.6 ± 2.9
target 3 A5C,U7A (mixed) RNA 1: CACCCGUGCAAAAUUGCAGGGGUCUAAAACGACCUGAAUAUUUCAGAUCAAA RNA 2: GGGAAUGGAUCCACAUCUACGAAUUCGUUUUUGAUCUGAAAUAUACCGGUCUGCAGAUCGGAAGAGCACACGU | 77.5 ± 13.5
target 3 insC 3' of 3,insG 3' of 1 (mixed) RNA 1: CACCCGUGCAAAAUUGCAGGGGUCUAAAACGACCUGAAUAUUUCAGAUCAAA RNA 2: GGGAAUGGAUCCACAUCUACGAAUUCGUUUUUGAUCUGAAAUAUUCAGGCUCGUGCAGAUCGGAAGAGCACACGU | 27.1 ± 7.05
target 3 G4U,G19U (mixed) RNA 1: CACCCGUGCAAAAUUGCAGGGGUCUAAAACGACCUGAAUAUUUCAGAUCAAA RNA 2: GGGAAUGGAUCCACAUCUACGAAUUCGUUUUUUAUCUGAAAUAUUCAUGUCUGCAGAUCGGAAGAGCACACGU | 77.5 ± 10
target 3 G4A,U7G (mixed) RNA 1: CACCCGUGCAAAAUUGCAGGGGUCUAAAACGACCUGAAUAUUUCAGAUCAAA RNA 2: GGGAAUGGAUCCACAUCUACGAAUUCGUUUUUGAUCUGAAAUAUGCAAGUCUGCAGAUCGGAAGAGCACACGU | 30.2 ± 3.35
target 3 C6U,A18G (mixed) RNA 1: CACCCGUGCAAAAUUGCAGGGGUCUAAAACGACCUGAAUAUUUCAGAUCAAA RNA 2: GGGAAUGGAUCCACAUCUACGAAUUCGUUUUUGGUCUGAAAUAUUUAGGUCUGCAGAUCGGAAGAGCACACGU | 20.3 ± 2.65
